# In patent CN108753792A (UNIV SUN YAT SEN, dated 2018):
# B1: 绿色荧光蛋白(GFP)纳米抗体 E6 (VHH)
# VHH: DVQLQESGGGLVQAGGSLRLSCAASGRFVSSYIMGWFRQAPGKEREAVASILRSVDATYYADSVKGRFTISRDNDKNTVYLQMNSLKPEDTAVYYCATRARGYFGSFGRLWPDDRQYDYWGQGTQVTVSS
# modifications: biotinylated (Sulfo-NHS-LC-biotin kit) in the ELISA of Example 5; not biotinylated in the Native-PAGE of Example 6
# notes: Printed molecular weight 18.4 KDa; also called E6抗体; pBAD24-Flag-E6-His; not shown: Flag tag from vector pBAD24-Flag-His; C-terminal 6xHis tag from vector pBAD24-Flag-His
# B2: 绿色荧光蛋白(GFP)纳米抗体 A12 (VHH)
# VHH: DVQLQESGGGLVQAGGSLRLSCAASGGTFSILSLGWFRQAPGKEREFVAAISRSEGSTDYADFVKGRFMISRENAKNTAYLQMNSLKPEDTAVYFCAASYARRLSTTASRVLYWGQGTQVTVSS
# modifications: biotinylated (Sulfo-NHS-LC-biotin kit) in the ELISA of Example 5; not biotinylated in the Native-PAGE of Example 6
# notes: Printed molecular weight 15.7 KDa; also called A12抗体; pADL-10b-A12-His; not shown: C-terminal 6xHis tag from vector pADL-10b-His
# B3: 绿色荧光蛋白(GFP)纳米抗体 D5 (VHH)
# VHH: DVQLQESGGGLVQPGGSLRLSCAASGIIFSIYDMGWYRQAPGKQRELVALITIHRSTNYEDSVKGRFTISRDNAKNTVYLQMNSLKPEDTAVYYCNANGVNYQYWGQGTQVTVSS
# modifications: biotinylated (Sulfo-NHS-LC-biotin kit) in the ELISA of Example 5; not biotinylated in the Native-PAGE of Example 6
# notes: Printed molecular weight 16.6 KDa; also called D5抗体; D5-biotin; not shown: Flag tag from vector pBAD24-Flag-His; C-terminal 6xHis tag from vector pBAD24-Flag-His
# What was measured:
# MBP [1] = target: T1, MBP (UniProt P0AEX9 27-396 = MBP); test: Native-PAGE mobility shift, Coomassie staining (Fig. 6D)
# MBP [2] = target: T1, MBP; test: Native-PAGE mobility shift, Coomassie staining (Fig. 6C)
Binder,binding result (MBP [1]),binding result (MBP [2])
B1,no binding (tested: 3μg MBP和3μg纯化的纳米抗体),–
B2,–,no binding (tested: 3μg MBP和3μg纯化的纳米抗体)
B3,no binding (tested: 3μg MBP和3μg纯化的纳米抗体),–
